Measured values: paper PMC3303827

What was measured:
[1] = target: U266 derived IgE λ light chain (dimer) (human (endogenous in U266)); assay: SEC; Superdex 75 10/300 GL; 1 g/L light chain in 20 mM HCl pH 2.0; mobile phase 100 mM Na2SO4, 25 mM Na2HPO4 pH 7.4; calibrated with BSA, chymotrypsinogen A, lysozyme
[2] = target: U266 derived IgE λ light chain (dimer) (human (endogenous in U266)); assay: ESI-Qq-TOF mass spectrometry; nano-spray; sample in 25 mM PBS pH 7.4; spectra deconvoluted by MaxEnt
[3] = target: U266 derived IgE λ light chain (dimer) (human (endogenous in U266)); assay: ESI-Qq-TOF mass spectrometry; nano-spray; sample in 20 mM HCl pH 2.0 (methods say pH 2.7); spectra deconvoluted by MaxEnt
[4] = target: U266 derived IgE λ light chain (dimer) (human (endogenous in U266)); assay: SEC; Superdex 75 10/300 GL; 1 g/L light chain in 25 mM PBS pH 7.4; mobile phase 100 mM Na2SO4, 25 mM Na2HPO4 pH 7.4; calibrated with BSA, chymotrypsinogen A, lysozyme

Measured: stoichiometry N

U266 derived IgE λ light chain (dimer) (natural protein)
2: all assays above
